These results are taken from patent US20210364527A1.

What is called Kd is the equilibrium constant for the complex coming apart. The low end stands for a tighter complex, the high end for a looser complex.

In the test the target is FA peptide (N-terminal phenylalanine, penultimate alanine; rest of sequence not given). Nature of the test: fluorescence polarization. In general terms: Polarisation of emitted light reports the rotation of a fluorescent probe.

B1: PS609 (Bis-atClpS2-V1, Linker 1) (designed binder)
chain: MSDSPVDLKPKPKVKPKLERPKLYKVMLLNDDYTPMSFVTVVLKAVFRMSEDTGRRVMMTAHRFGSAVVVVCERDIAETKAKEATDLGKEAGFPLMFTTEPEEGGGSGGGSGGGSGMSDSPVDLKPKPKVKPKLERPKLYKVMLLNDDYTPMSFVTVVLKAVFRMSEDTGRRVMMTAHRFGSAVVVVCERDIAETKAKEATDLGKEAGFPLMFTTEPEEGHHHHHHHHHHGGGSGGGSGGGSGLNDFFEAQKIEWHEGGGSGGGSGGGSGLNDFFEAQKIEWHE
B1 yielded a Kd of 221 nM.

B2: PS611 (Bis-atClpS2-V1, Linker 3) (designed binder)
chain: MSDSPVDLKPKPKVKPKLERPKLYKVMLLNDDYTPMSFVTVVLKAVFRMSEDTGRRVMMTAHRFGSAVVVVCERDIAETKAKEATDLGKEAGFPLMFTTEPEEGSAGSAAGSGEFGSAGSAAGSGEFGSAGSAAGSGEFMSDSPVDLKPKPKVKPKLERPKLYKVMLLNDDYTPMSFVTVVLKAVFRMSEDTGRRVMMTAHRFGSAVVVVCERDIAETKAKEATDLGKEAGFPLMFTTEPEEGHHHHHHHHHHGGGSGGGSGGGSGLNDFFEAQKIEWHEGGGSGGGSGGGSGLNDFFEAQKIEWHE
In turn, B2 had a Kd of 137 nM.
